Reference: US20240336680A1
Where a chain is given by its changes, count along the chain named.

B1: HuT252S4 H3/L1 (antibody, V domains shown)
VH: EVQLVQSGAEVKKPGESLKISCKGSGYSFTGYNMNWVRQMPGKNLEWIGLINPYNGGTRYNQKFKGKATLSVDKSISTAYLQWSSLKASDTAMYFCARMGLGNAMDYWGQGTTVTVSS
VL: DIVMTQSPDSLAVSLGERATINCKSSQNLLNSGNQKNYLTWYQQKPGQPPKLLIYWASTMESGVPDRFSGSGSGTDFTLTISSLQAEDVAVYYCQNDYIYPLPFGQGTKLEIK
B2: HuT252S4 H3/L2 (antibody, V domains shown)
VH: B1 VH
VL: B1 VL with N31Q, M60R
B3: Chimeric T252S4 H/L (antibody, human IgG1, V domains shown)
VH: EVQLQQSGPELVKPGASMKISCKASGYSFTGYNMNWVKQTHGKNLEWIGLINPYNGGTRYNQKFKGKATLTVDKSSSTAYMELLSLTSEDSAVYFCARMGLGNAMDYWGQGTSVTVSS
VL: DIVMTQSPSSLTVTAGEKVTMSCKSSQNLLNSGNQKNYLTWYQQKPGQPPKLLIYWASTMESGVPDRFTGSGSGTDFTLTISSVQAEDLAVYYCQNDYIYPLPFGAGTKLELK

How the values were obtained:
[1] = biological target: human CLDN18.2 (isoform 2 of claudin-18), full length, expressed on CHO cells (human) (UniProt P56856); test: FACS titration on CHO/CLDN18.2 cells, 0.00001 to 100 ug/mL
[2] = biological target: human CLDN18.2 (isoform 2 of claudin-18), full length, expressed on CHO cells (human) (UniProt P56856); test: FACS, serial dilutions on CHO cells expressing human CLDN18.2

Binder	EC50 (read off the curve) [1]	EC50 [2]
B1	1 µg/mL	–
B2	1 µg/mL	–
B3	–	1 µg/mL
